How the values were obtained:
Test in all cases: EMSA; 160 uM protein, 120 nM RNA; 15 mM Tris-HCl pH 7.0, 150 mM NaCl, 10% glycerol, 2 U/ul RNase inhibitor, 22 C, 15 min; 6% native TBE PAGE in 0.5x TBE
Conditions in all cases: protein: recombinant; tags: N-terminal His6, thrombin site; label: 5'-6-FAM
[1] = molecular target: T1, Tric1 SAM domain WT (Arabidopsis thaliana, UniProt Q9SCK3)
T1 sequence: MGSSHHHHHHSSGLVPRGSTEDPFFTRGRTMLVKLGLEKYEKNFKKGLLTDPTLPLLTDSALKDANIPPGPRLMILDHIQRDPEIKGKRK

[2] = molecular target: T2, Tric1 SAM domain Asp235Ala (Arabidopsis thaliana, UniProt Q9SCK3, D235A)
T2 sequence: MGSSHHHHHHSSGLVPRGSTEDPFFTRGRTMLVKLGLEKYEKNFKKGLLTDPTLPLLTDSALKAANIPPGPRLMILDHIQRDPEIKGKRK

[3] = molecular target: T3, Tric1 SAM domain Asp235Ala:Gly241Glu (Arabidopsis thaliana, UniProt Q9SCK3, D235A;G241E)
T3 sequence: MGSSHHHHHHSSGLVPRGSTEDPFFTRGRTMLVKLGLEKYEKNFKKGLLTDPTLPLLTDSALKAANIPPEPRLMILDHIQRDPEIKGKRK

[4] = molecular target: T4, Tric1 SAM domain Gly241Glu (Arabidopsis thaliana, UniProt Q9SCK3, G241E)
T4 sequence: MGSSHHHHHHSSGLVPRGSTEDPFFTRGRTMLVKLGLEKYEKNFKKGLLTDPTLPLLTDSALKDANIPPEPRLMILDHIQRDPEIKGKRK

UCGCUUUGCAUGCGA (structured_RNA) [tRNAala T-arm]
binding result [1]: binds | binding result [2]: no binding | binding result [3]: no binding | binding result [4]: no binding

From PMC11063897, “Structural analysis of the SAM domain of the Arabidopsis mitochondrial tRNA import receptor”
